Assay results reported in ChEMBL document CHEMBL2177050, “Understanding the binding of daunorubicin and doxorubicin to NADPH-dependent cytosolic reductases by computational methods” (Eur J Med Chem, 2012).
Blank lines part the entries; values can stand above or below the molecule they belong to.

Assays:
[1] = target: T1, Aldo-keto reductase family 1 member A1 (Homo sapiens) (UniProt P14550); test: Activity of human AKR1A1 expressed in Escherichia coli BL21 assessed per mg protein in presence of 0.2 mM NADPH
T1 sequence (whole entry): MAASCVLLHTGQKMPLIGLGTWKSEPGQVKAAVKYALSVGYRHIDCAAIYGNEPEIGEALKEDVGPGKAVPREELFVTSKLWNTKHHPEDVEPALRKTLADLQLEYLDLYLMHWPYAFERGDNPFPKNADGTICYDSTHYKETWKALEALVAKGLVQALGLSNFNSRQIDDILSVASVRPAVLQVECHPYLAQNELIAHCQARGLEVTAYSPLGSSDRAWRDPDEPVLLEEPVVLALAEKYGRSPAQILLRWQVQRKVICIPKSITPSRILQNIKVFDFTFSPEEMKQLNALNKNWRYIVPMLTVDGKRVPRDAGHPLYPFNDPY

[2] = substrate: COc1cccc2c1C(=O)c1c(O)c3c(c(O)c1C2=O)C[C@@](O)(C(=O)CO)C[C@@H]3O[C@H]1C[C@H](N)[C@H](O)[C@H](C)O1; test: Activity of GST-tagged aldo-keto reductase 1A1
[3] = substrate: COc1cccc2c1C(=O)c1c(O)c3c(c(O)c1C2=O)C[C@@](O)(C(C)=O)C[C@@H]3O[C@H]1C[C@H](N)[C@H](O)[C@H](C)O1; test: (§1) Activity of human recombinant His6-tagged carbonyl reductase 1 expressed in Escherichia coli BL21(DE3) using menadione as substrate by Michaelis-Menten plot analysis
[4] = substrate: COc1cccc2c1C(=O)c1c(O)c3c(c(O)c1C2=O)C[C@@](O)(C(=O)CO)C[C@@H]3O[C@H]1C[C@H](N)[C@H](O)[C@H](C)O1; test: as §1
[5] = substrate: COc1cccc2c1C(=O)c1c(O)c3c(c(O)c1C2=O)C[C@@](O)(C(=O)CO)C[C@@H]3O[C@H]1C[C@H](N)[C@H](O)[C@H](C)O1; test: Activity of His-tagged carbonyl reductase 1
[6] = substrate: COc1cccc2c1C(=O)c1c(O)c3c(c(O)c1C2=O)C[C@@](O)(C(C)=O)C[C@@H]3O[C@H]1C[C@H](N)[C@H](O)[C@H](C)O1; test: (§2) Activity of human carbonyl reductase 1
[7] = substrate: COc1cccc2c1C(=O)c1c(O)c3c(c(O)c1C2=O)C[C@@](O)(C(=O)CO)C[C@@H]3O[C@H]1C[C@H](N)[C@H](O)[C@H](C)O1; test: as §2

Activity [1]: 11 nmol/min
Molecule: COc1cccc2c1C(=O)c1c(O)c3c(c(O)c1C2=O)C[C@@](O)(C(=O)CO)C[C@@H]3O[C@H]1C[C@H](N)[C@H](O)[C@H](C)O1

Activity [1]: 120 nmol/min
Molecule: COc1cccc2c1C(=O)c1c(O)c3c(c(O)c1C2=O)C[C@@](O)(C(C)=O)C[C@@H]3O[C@H]1C[C@H](N)[C@H](O)[C@H](C)O1

B1: Aldo-keto reductase family 1 member A1 (Homo sapiens), P14550 (protein)
chain: MAASCVLLHTGQKMPLIGLGTWKSEPGQVKAAVKYALSVGYRHIDCAAIYGNEPEIGEALKEDVGPGKAVPREELFVTSKLWNTKHHPEDVEPALRKTLADLQLEYLDLYLMHWPYAFERGDNPFPKNADGTICYDSTHYKETWKALEALVAKGLVQALGLSNFNSRQIDDILSVASVRPAVLQVECHPYLAQNELIAHCQARGLEVTAYSPLGSSDRAWRDPDEPVLLEEPVVLALAEKYGRSPAQILLRWQVQRKVICIPKSITPSRILQNIKVFDFTFSPEEMKQLNALNKNWRYIVPMLTVDGKRVPRDAGHPLYPFNDPY
Km [2]: 247 µM
kcat [2]: 0.000667 s⁻¹

B2: Carbonyl reductase [NADPH] 1 (Homo sapiens), P16152 (protein)
chain: MSSGIHVALVTGGNKGIGLAIVRDLCRLFSGDVVLTARDVTRGQAAVQQLQAEGLSPRFHQLDIDDLQSIRALRDFLRKEYGGLDVLVNNAGIAFKVADPTPFHIQAEVTMKTNFFGTRDVCTELLPLIKPQGRVVNVSSIMSVRALKSCSPELQQKFRSETITEEELVGLMNKFVEDTKKGVHQKEGWPSSAYGVTKIGVTVLSRIHARKLSEQRKGDKILLNACCPGWVRTDMAGPKATKSPEEGAETPVYLALLPPDAEGPHGQFVSEKRVEQW
Km [3]: 51 µM
kcat [3]: 1.94 s⁻¹
Km [4]: 287 µM
kcat [4]: 0.21 s⁻¹
Km [5]: 167 µM
kcat [5]: 0.0103 s⁻¹
Km [6]: 108 µM
kcat [6]: 1.27 s⁻¹
Km [7]: 90 µM
